“And” between values parts separate entries of the source, which are not always exact repeats. Identical values can stand only once.

The text below walks through data of PMC10917784.

Assay [1] addresses ISB 1442 (human). As to the kind of experiment: SPR; antibody constructs immobilised on a Protein L Series S CM5 chip, increasing concentrations of Fc receptor flushed; Biacore 8K+, 25 °C, neutral pH; 1:1 binding model. In general terms: SPR reads the build-up and loss of mass on a sensor chip optically.
Another assay concerns the target ISB 1442 WT Fc (human). The assay is described as above.
Assay [2] addresses Trastuzumab. Described as above.
Assay [3] has as its target ISB 1442 (human). Put plainly: SPR; antibody constructs immobilised on a Protein L Series S CM5 chip, increasing concentrations of FcRn flushed; Biacore 8K+, 25 °C, pH 6.0; steady state affinity model.
Assay [4] addresses ISB 1442 silenced Fc (human). The description is as above.
Assay [5] deals with trastuzumab. Put plainly: SPR; antibody constructs captured on a Protein L Series S CM5 chip, FcRn flowed over; Biacore 8K+, 25 °C, pH 6.0; steady state affinity model; three replicates.
In assay [6] the target is ISB 1442, CD38 and CD47 bispecific biparatopic antibody (enhanced Fc) (human). Described as above.
Assay [7] deals with ISB 1442 with a wild-type Fc (without Fc enhancing mutations) (human). The assay is described as above.
Assay [8] deals with trastuzumab. As to the kind of experiment: SPR; antibody constructs captured on a Protein L Series S CM5 chip, Fc receptors flowed over; Biacore 8K+, 25 °C, neutral pH; 1:1 binding model (FcγRI and FcγRIIIa); three replicates.
The target of assay [9] is ISB 1442, CD38 and CD47 bispecific biparatopic antibody (enhanced Fc) (human). Described as above.
The target of the next assay is SIRPα (Homo sapiens) (UniProt P78324). As to conditions: cited from earlier work.

his-tagged human FcγRIIIa ECD, sequence (P08637 17-208): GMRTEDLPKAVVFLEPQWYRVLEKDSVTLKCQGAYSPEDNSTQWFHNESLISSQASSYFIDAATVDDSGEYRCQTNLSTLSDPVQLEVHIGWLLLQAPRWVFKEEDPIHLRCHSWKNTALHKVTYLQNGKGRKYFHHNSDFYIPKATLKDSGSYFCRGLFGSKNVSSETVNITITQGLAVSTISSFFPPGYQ
his-tagged human FcRn ECD & β2 microglobulin, sequence (P55899 24-297): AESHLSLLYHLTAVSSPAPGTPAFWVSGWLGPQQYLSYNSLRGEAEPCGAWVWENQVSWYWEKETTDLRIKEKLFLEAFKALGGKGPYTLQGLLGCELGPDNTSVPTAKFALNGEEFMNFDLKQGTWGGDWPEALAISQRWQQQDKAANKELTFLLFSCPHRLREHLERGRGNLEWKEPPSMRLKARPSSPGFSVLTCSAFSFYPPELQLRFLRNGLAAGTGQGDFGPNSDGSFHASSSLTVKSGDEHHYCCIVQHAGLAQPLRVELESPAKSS
his-tagged human FcRn ECD & β2 microglobulin, sequence (P61769 21-119): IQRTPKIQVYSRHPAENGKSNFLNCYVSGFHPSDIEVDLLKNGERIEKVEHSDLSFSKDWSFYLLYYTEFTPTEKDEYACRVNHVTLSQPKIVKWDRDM
human FcγRIIIa ECD, sequence (P08637 17-208): as the sequence (P08637 17-208) above
human FcRn ECD & β2 microglobulin, sequence (P55899 24-297): as the sequence (P55899 24-297) above
human FcRn ECD & β2 microglobulin, sequence (P61769 21-119): as the sequence (P61769 21-119) above
human FcγRI extracellular domain (ECD), sequence (P12314 16-292): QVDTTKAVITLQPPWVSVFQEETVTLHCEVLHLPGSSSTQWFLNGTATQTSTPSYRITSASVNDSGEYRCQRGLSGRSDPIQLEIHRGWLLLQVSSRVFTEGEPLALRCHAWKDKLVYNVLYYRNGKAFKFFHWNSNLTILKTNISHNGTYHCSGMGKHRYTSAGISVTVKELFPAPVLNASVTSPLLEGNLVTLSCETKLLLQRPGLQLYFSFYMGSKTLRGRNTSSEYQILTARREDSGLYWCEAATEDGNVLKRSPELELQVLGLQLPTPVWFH

One may read the Kd as the constant that tells how readily two partners part at equilibrium. For the substance “human FcγRIIIa ECD (from UniProt P08637 17-208) (receptor)”, the figures for the Kd with ISB 1442 (human) [1] and with ISB 1442 WT Fc (human) were 13 nM and 57 nM, respectively.

In turn, “human FcγRI extracellular domain (ECD) (from UniProt P12314 16-292) (receptor)” registered a Kd in the assay with Trastuzumab [2] of 0.21 nM.

In the case of “human FcRn ECD & β2 microglobulin (from UniProt P55899 24-297; P61769 21-119) (complex)”, the Kd in the assay with ISB 1442 (human) [3] is 181 nM; in assay [4] it was 221 nM.

Consider “his-tagged human FcRn ECD & β2 microglobulin (from UniProt P55899 24-297; P61769 21-119) (complex)”, for which the Kd with trastuzumab [5] is 253 nM and 217 nM and 203 nM; in assay [6], 129 nM and 189 nM; in assay [6] (mean) it was 181 nM; in assay [7], 236 nM.

In the case of “his-tagged human FcγRIIIa ECD (from UniProt P08637 17-208) (receptor)”, the Kd with trastuzumab [8] is 134 nM; in [9], 13.2 nM and 12.6 nM and 13.8 nM; in assay [9] (mean), 13.2 nM.

Consider CD47 (from UniProt Q08722), for which, in the assay with SIRPα (Homo sapiens), the Kd is 1000 nM.
